T1: Meo-Suc-Ala-Ala-Pro-Val-pNA
T1 chain: AAPV

T2: H-D-Pro-HHT-Arg-pNA
T2 chain: PXR

T3: H-D-Lys(CBO)-Pro-Arg-pNA
T3 chain: KPR

T4: Suc-Ala-Ala-Pro-Phe-pNA
T4 chain: AAPF

B1: PFEK-protease T-6xHIS zymogen (protein)
chain: MDSKGSSQKSRLLLLLVVSNLLLCQGVVSDYKDDDDVDAAALAAPFDDDDKIVGGYALEEGEWPWQVSIQRNGSHFCGGSLIAEQWVLTAAHCFRNTSETSLYQVLLGARQLVQPGPHAMYARVRQVESNPLYQGTASSADVALVELEAPVPFTNYILPVCLPDPSVIFETGMNCWVTGWGSPSEEDLLPEPRILQKLAVPIIDTPKCNLLYSKDTEFGYQPKTIKNDMLCAGFEEGKKDACKGDSGGPLVCLVGQSWLQAGVISWGEGCARQNRPGVYIRVTAHHNWIHRIIPKLQFQPARLGGQKSRHHHHHH
B2: activated protease T-6xHIS (protein)
chain: MDSKGSSQKSRLLLLLVVSNLLLCQGVVSDYKDDDDVDAAALAAPFDDDDKIVGGYALEEGEWPWQVSIQRNGSHFCGGSLIAEQWVLTAAHCFRNTSETSLYQVLLGARQLVQPGPHAMYARVRQVESNPLYQGTASSADVALVELEAPVPFTNYILPVCLPDPSVIFETGMNCWVTGWGSPSEEDLLPEPRILQKLAVPIIDTPKCNLLYSKDTEFGYQPKTIKNDMLCAGFEEGKKDACKGDSGGPLVCLVGQSWLQAGVISWGEGCARQNRPGVYIRVTAHHNWIHRIIPKLQFQPARLGGQKSRHHHHHH

Assays:
[1] = target: T1, Meo-Suc-Ala-Ala-Pro-Val-pNA
H-D-Pro-HHT-Arg-pNA = target: T2, H-D-Pro-HHT-Arg-pNA
H-D-Lys(CBO)-Pro-Arg-pNA = target: T3, H-D-Lys(CBO)-Pro-Arg-pNA
Suc-Ala-Ala-Pro-Phe-pNA = target: T4, Suc-Ala-Ala-Pro-Phe-pNA

Protein	chromogenic amidolytic activity [1]	chromogenic amidolytic activity (H-D-Pro-HHT-Arg-pNA)	chromogenic amidolytic activity (H-D-Lys(CBO)-Pro-Arg-pNA)	chromogenic amidolytic activity (Suc-Ala-Ala-Pro-Phe-pNA)	Specific Activity (amidolytic, release of pNA) (nmole pNA produced/min/ug protein) (H-D-Pro-HHT-Arg-pNA)	Specific Activity (amidolytic, release of pNA) (nmole pNA produced/min/ug protein) (H-D-Lys(CBO)-Pro-Arg-pNA)
B1	No measurable chromogenic amidolytic activity was detected	No measurable chromogenic amidolytic activity was detected	No measurable chromogenic amidolytic activity was detected	No measurable chromogenic amidolytic activity was detected	–	–
B2	–	–	–	–	0.01	0.057

— US20020146805
